Assay results reported in paper PMC9482650, “Quantitative fragmentomics allow affinity mapping of interactomes” (Nature Communications, 2022).

T1: PDZRN3_1, Q9UPQ7
T1 sequence (Q9UPQ7 244-349, limits assumed, looked up): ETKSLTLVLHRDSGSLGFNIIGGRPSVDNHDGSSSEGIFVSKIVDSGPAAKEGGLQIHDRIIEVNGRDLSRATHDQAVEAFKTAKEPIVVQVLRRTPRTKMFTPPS

T2: MPDZ_12, O75970
T2 sequence (O75970 1857-1958, limits assumed, looked up): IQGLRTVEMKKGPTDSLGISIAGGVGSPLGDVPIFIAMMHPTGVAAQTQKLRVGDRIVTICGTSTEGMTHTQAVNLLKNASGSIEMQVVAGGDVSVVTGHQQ

T3: RADIL, Q96JH8
T3 sequence (Q96JH8 971-1071, limits assumed, looked up): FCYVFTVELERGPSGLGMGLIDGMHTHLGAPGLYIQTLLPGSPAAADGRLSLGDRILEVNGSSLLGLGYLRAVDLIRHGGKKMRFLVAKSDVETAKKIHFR

T4: SNTG2, Q9NY99
T4 sequence (Q9NY99 68-166, limits assumed, looked up): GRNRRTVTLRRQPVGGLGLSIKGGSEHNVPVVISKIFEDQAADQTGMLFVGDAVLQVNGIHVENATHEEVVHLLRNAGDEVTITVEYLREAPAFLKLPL

T5: GRIP1_3, Q9Y3R0
T5 sequence (Q9Y3R0 247-346, limits assumed, looked up): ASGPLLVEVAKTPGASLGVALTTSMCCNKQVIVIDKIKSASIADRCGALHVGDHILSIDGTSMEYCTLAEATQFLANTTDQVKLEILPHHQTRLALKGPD

T6: RHPN1, Q8TCX5
T6 sequence (Q8TCX5 508-602, limits assumed, looked up): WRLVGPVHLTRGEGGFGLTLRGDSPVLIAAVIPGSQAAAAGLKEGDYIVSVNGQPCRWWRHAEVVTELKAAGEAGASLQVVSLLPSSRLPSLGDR

T7: ARHGEF11, O15085
T7 sequence (O15085 42-136, limits assumed, looked up): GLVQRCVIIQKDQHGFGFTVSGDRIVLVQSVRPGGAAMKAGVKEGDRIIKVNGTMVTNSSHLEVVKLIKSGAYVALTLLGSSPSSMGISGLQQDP

T8: SNTB1, Q13884
T8 sequence (Q13884 107-205, limits assumed, looked up): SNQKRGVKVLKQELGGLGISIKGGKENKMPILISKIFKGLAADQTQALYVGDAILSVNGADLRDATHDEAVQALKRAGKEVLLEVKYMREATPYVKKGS

T9: LRRC7, Q96NW7
T9 sequence (Q96NW7 1440-1537, limits assumed, looked up): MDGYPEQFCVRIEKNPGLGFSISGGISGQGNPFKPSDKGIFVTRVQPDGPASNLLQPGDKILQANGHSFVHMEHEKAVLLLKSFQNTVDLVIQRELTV

T10: GRIP1_2, Q9Y3R0
T10 sequence (Q9Y3R0 145-248, limits assumed, looked up): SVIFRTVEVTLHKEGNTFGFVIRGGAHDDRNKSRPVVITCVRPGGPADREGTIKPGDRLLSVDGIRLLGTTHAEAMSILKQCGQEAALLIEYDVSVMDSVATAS

T11: PTPN13_1, Q12923
T11 sequence (Q12923 1088-1188, limits assumed, looked up): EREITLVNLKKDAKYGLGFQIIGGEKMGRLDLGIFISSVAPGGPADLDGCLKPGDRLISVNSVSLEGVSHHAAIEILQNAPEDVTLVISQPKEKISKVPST

T12: APBA1_2, Q02410
T12 sequence (Q02410 742-832, limits assumed, looked up): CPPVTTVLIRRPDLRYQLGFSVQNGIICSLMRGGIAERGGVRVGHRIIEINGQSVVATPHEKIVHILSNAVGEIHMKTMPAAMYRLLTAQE


What was measured:
Assay in all cases: holdup assay
Design in all cases: key: below the threshold = too weak to quantify, mostly under pKd 3.1 to 4
Conditions in all cases: plain residues with an end cap or a label only (N-terminal biotin on a linker: ado-ado)
MAGI2_3, Q86UL8 = target: MAGI2_3, Q86UL8
Chain of MAGI2_3, Q86UL8 (Q86UL8 600-682): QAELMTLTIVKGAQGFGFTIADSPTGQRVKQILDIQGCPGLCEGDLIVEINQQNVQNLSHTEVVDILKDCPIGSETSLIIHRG

PDZRN3_1, Q9UPQ7 = target: T1, PDZRN3_1, Q9UPQ7
DLG4_2, P78352 = target: DLG4_2, P78352
Chain of DLG4_2, P78352 (P78352 155-259): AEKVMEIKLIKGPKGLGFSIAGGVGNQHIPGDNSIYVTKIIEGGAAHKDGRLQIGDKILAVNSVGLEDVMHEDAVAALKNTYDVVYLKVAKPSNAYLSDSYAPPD

SCRIB_1, Q14160 = target: SCRIB_1, Q14160
Chain of SCRIB_1, Q14160 (Q14160 718-814): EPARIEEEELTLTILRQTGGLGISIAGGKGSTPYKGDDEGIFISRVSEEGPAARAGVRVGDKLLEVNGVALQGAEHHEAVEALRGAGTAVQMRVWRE

MAGI2_5, Q86UL8 = target: MAGI2_5, Q86UL8
Chain of MAGI2_5, Q86UL8 (Q86UL8 915-1017): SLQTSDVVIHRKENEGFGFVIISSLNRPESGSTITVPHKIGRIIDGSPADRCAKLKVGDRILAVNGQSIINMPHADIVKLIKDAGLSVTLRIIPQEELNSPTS

Inadl_4, Q8NI35 = target: Inadl_4, Q8NI35
Chain of Inadl_4, Q8NI35 (Q8NI35 547-651): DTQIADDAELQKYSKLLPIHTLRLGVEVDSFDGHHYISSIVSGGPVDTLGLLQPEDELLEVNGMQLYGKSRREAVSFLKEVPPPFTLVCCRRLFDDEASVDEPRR

PARD3_3, Q8TEW0 = target: PARD3_3, Q8TEW0
Chain of PARD3_3, Q8TEW0 (Q8TEW0 582-685): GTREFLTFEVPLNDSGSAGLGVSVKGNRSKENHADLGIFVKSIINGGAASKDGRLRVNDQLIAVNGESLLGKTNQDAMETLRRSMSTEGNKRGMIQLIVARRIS

SCRIB_3, Q14160 = target: SCRIB_3, Q14160
Chain of SCRIB_3, Q14160 (Q14160 999-1103): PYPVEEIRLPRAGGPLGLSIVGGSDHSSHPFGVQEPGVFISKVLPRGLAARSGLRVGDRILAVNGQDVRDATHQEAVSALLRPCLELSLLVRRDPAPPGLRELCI

MPDZ_12, O75970 = target: T2, MPDZ_12, O75970
RADIL, Q96JH8 = target: T3, RADIL, Q96JH8
DLG5_1, Q8TDM6 = target: DLG5_1, Q8TDM6
Chain of DLG5_1, Q8TDM6 (Q8TDM6 617-713): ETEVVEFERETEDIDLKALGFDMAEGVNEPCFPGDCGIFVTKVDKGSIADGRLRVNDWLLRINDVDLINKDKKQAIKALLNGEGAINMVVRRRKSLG

SNTG2, Q9NY99 = target: T4, SNTG2, Q9NY99
GRIP1_3, Q9Y3R0 = target: T5, GRIP1_3, Q9Y3R0
RHPN1, Q8TCX5 = target: T6, RHPN1, Q8TCX5
ARHGEF11, O15085 = target: T7, ARHGEF11, O15085
SNTB1, Q13884 = target: T8, SNTB1, Q13884
DLG2_2, Q15700 = target: DLG2_2, Q15700
Chain of DLG2_2, Q15700 (Q15700 189-283): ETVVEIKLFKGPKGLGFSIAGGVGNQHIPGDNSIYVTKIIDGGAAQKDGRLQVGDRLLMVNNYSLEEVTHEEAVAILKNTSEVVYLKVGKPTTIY

NHERF4_2, Q86UT5 = target: NHERF4_2, Q86UT5
Chain of NHERF4_2, Q86UT5 (Q86UT5 220-308): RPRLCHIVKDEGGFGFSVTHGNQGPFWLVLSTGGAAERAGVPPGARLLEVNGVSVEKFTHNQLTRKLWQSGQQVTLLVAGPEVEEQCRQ

Inadl_10, Q8NI35 = target: Inadl_10, Q8NI35
Chain of Inadl_10, Q8NI35 (Q8NI35 1673-1763): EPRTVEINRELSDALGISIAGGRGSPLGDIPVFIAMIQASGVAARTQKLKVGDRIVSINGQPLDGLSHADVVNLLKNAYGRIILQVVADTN

LRRC7, Q96NW7 = target: T9, LRRC7, Q96NW7
GRIP1_2, Q9Y3R0 = target: T10, GRIP1_2, Q9Y3R0
PTPN13_1, Q12923 = target: T11, PTPN13_1, Q12923
CASK, O14936 = target: CASK, O14936
Chain of CASK, O14936 (O14936 487-570): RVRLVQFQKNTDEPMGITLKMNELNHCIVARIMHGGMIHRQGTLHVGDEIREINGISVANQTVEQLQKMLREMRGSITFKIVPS

ARHGEF12, Q9NZN5-2 = target: ARHGEF12, Q9NZN5-2
Chain of ARHGEF12, Q9NZN5-2 (Q9NZN5 other isoform, or with tags, fused parts or gaps): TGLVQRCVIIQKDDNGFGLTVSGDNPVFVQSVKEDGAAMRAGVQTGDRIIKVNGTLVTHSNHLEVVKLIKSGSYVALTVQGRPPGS

DLG1_1, Q12959 = target: DLG1_1, Q12959
APBA1_2, Q02410 = target: T12, APBA1_2, Q02410

Row | Binder | pKd (MAGI2_3, Q86UL8) | pKd (PDZRN3_1, Q9UPQ7) | pKd (DLG4_2, P78352) | pKd (SCRIB_1, Q14160) | pKd (MAGI2_5, Q86UL8) | pKd (Inadl_4, Q8NI35) | pKd (PARD3_3, Q8TEW0) | pKd (SCRIB_3, Q14160) | pKd (MPDZ_12, O75970) | pKd (RADIL, Q96JH8) | pKd (DLG5_1, Q8TDM6) | pKd (SNTG2, Q9NY99) | pKd (GRIP1_3, Q9Y3R0) | pKd (RHPN1, Q8TCX5) | pKd (ARHGEF11, O15085) | pKd (SNTB1, Q13884) | pKd (DLG2_2, Q15700) | pKd (NHERF4_2, Q86UT5) | pKd (Inadl_10, Q8NI35) | pKd (LRRC7, Q96NW7) | further results
1 | MLSKQSESAI [FLVCR1, Q9Y5Y0] | below the threshold | 3.78 | 3.84 | 3.91 | below the threshold | below the threshold | below the threshold | 4.61 | below the threshold | below the threshold | below the threshold | 3.81 | below the threshold | 4.01 | below the threshold | 3.68 | below the threshold | below the threshold | below the threshold | below the threshold | pKd (GRIP1_2, Q9Y3R0): below the threshold; pKd (PTPN13_1, Q12923): below the threshold; pKd (CASK, O14936): below the threshold; pKd (ARHGEF12, Q9NZN5-2): 3.68; pKd (DLG1_1, Q12959): below the threshold; pKd (APBA1_2, Q02410): below the threshold
2 | QSARLWETSI [ADAM22, Q9P0K1] | below the threshold | 4.87 | 4.18 | 5.23 | 3.7 | below the threshold | 3.74 | 5.32 | below the threshold | 3.71 | below the threshold | 4.86 | below the threshold | 4.57 | 3.79 | 4.69 | 3.85 | below the threshold | 3.8 | below the threshold | pKd (GRIP1_2, Q9Y3R0): below the threshold; pKd (PTPN13_1, Q12923): below the threshold; pKd (CASK, O14936): below the threshold; pKd (ARHGEF12, Q9NZN5-2): 4.73; pKd (DLG1_1, Q12959): 4.21; pKd (APBA1_2, Q02410): below the threshold

Now from value to binder, other results behind:

Row | pKd (MAGI2_3, Q86UL8) | pKd (PDZRN3_1, Q9UPQ7) | pKd (DLG4_2, P78352) | pKd (SCRIB_1, Q14160) | pKd (MAGI2_5, Q86UL8) | pKd (Inadl_4, Q8NI35) | pKd (PARD3_3, Q8TEW0) | pKd (SCRIB_3, Q14160) | pKd (MPDZ_12, O75970) | pKd (RADIL, Q96JH8) | pKd (DLG5_1, Q8TDM6) | pKd (SNTG2, Q9NY99) | pKd (GRIP1_3, Q9Y3R0) | pKd (RHPN1, Q8TCX5) | pKd (ARHGEF11, O15085) | pKd (SNTB1, Q13884) | pKd (DLG2_2, Q15700) | pKd (NHERF4_2, Q86UT5) | pKd (Inadl_10, Q8NI35) | pKd (LRRC7, Q96NW7) | Binder | further results
3 | below the threshold | below the threshold | 4.11 | 4.56 | below the threshold | below the threshold | below the threshold | 5.14 | below the threshold | below the threshold | below the threshold | below the threshold | below the threshold | 3.97 | below the threshold | 3.53 | 4.06 | below the threshold | below the threshold | below the threshold | TASPAKETSF [SLC2A7, Q6PXP3] | pKd (GRIP1_2, Q9Y3R0): below the threshold; pKd (PTPN13_1, Q12923): below the threshold; pKd (CASK, O14936): below the threshold; pKd (ARHGEF12, Q9NZN5-2): 3.59; pKd (DLG1_1, Q12959): below the threshold; pKd (APBA1_2, Q02410): below the threshold
4 | below the threshold | below the threshold | below the threshold | below the threshold | below the threshold | below the threshold | below the threshold | below the threshold | below the threshold | below the threshold | below the threshold | below the threshold | below the threshold | below the threshold | below the threshold | below the threshold | below the threshold | below the threshold | below the threshold | below the threshold | RKPKPSSSCC [RAB9A, P51151] | pKd (GRIP1_2, Q9Y3R0): below the threshold; pKd (PTPN13_1, Q12923): below the threshold; pKd (CASK, O14936): below the threshold; pKd (ARHGEF12, Q9NZN5-2): 4.27; pKd (DLG1_1, Q12959): below the threshold; pKd (APBA1_2, Q02410): below the threshold
5 | below the threshold | below the threshold | 3.63 | 4.58 | 4.36 | below the threshold | below the threshold | 3.61 | below the threshold | 3.71 | below the threshold | below the threshold | below the threshold | 4.06 | 4.21 | 3.53 | below the threshold | below the threshold | below the threshold | below the threshold | SAAKVLTSMC [GHRHR, Q02643] | pKd (GRIP1_2, Q9Y3R0): below the threshold; pKd (PTPN13_1, Q12923): below the threshold; pKd (CASK, O14936): below the threshold; pKd (ARHGEF12, Q9NZN5-2): 4.65; pKd (DLG1_1, Q12959): below the threshold; pKd (APBA1_2, Q02410): below the threshold
